According to paper PMC4682968, “Studies on the Glutathione-Dependent Formaldehyde-Activating Enzyme from Paracoccus denitrificans” (PLoS ONE, 2015):

Target: the molecule itself
Experiment: SEC; analytical size-exclusion chromatography of wild type non-tagged GFA, calibrated with standard protein samples; apparent Mw = 42 kDa

B1: glutathione-dependent formaldehyde-activating enzyme (GFA) from Paracoccus denitrificans, wild type, non-tagged (enzyme)
chain: GHMVDTSGVKIHPAVDNGIKPAQPGFAGGTLHCKCSTNPVRVAVRAQTAHNHVCGCTKCWKPEGAIFSQVAVVGRDALEVLEGAEKLEIVNAEAPIQRHRCRDCGVHMYGRIENRDHPFYGLDFVHTELSDEDGWSAPEFAAFVSSIIESGVDPSRMEAIRARLRELGLEPYDALSPPLMDAIATHIAKRSGALAA
notes: an additional glycine residue and a histidine residue left on the N-terminus after TEV protease removal of the His-Tag; Expressed from a modified pET16b plasmid with a TEV site between the His-Tag and the insert; also called GFA WT; wild type non-tagged GFA; not shown: His-Tag, N-terminal, cleaved
  stoichiometry N: 2
